Measurements reported in the DeepSol protein solubility set.

Experiment: soluble on expression in E. coli; label from the status in PepcDB or PDB records

Sequence | soluble on expression in E. coli
MGHHHHHHSHMRVFIIHLSPKTCQNFSLKETHITPLLESLKLQGISYEIFDAIYSKISPTQLHPLILEHLHPSFMVEDLWAFCKNKKHPPCALKNFFYAIKHCGKRMGFGELGCYASHYSLWQKCIELNEAICILEDDIIIKDRFKESLEFCRHHINELGYIRLMHLEENVAKQKTPVKGVSQILNFKDGIGTQGYVLAPKAAQKLLKYSAKEWVMPIDCVMDRHYWHGVKNYVLEEFAIACDGMNAQNSNTEKQRPKKLPLSIRIGRSLHKSTIKFLDKVFRYSPKLIRIGKH | soluble
MGSDKIHHHHHHMNAPAGGLSPALTPEAVADTTAMATETHILNPRFYTTDFDELDRVDVTPVRKDWDALIAEMKADPNKAHFKKTEAWDRIDWDGMDPALRVEFIDFLVSSCTAEFSGCVLYKEMKRRGSNPDIRELFNYMARDEARHAGFINDALREAGVAVNLGFLTKAKKYTYFRPKFIYYATYLSEKIGYARYITIYRHLEANPEHRFHPIFKWFKEWCNDEFRHGEAFALLMKTDPKLTDTTVNRLWIRFFLTAVYSTMWVRDHARPEFHKALGVDIDWYDQEVYRKTSEIARQIFPVELDIDHPRWKPALRRMNEAFLRIDRGTRRGGIAGRLEKALGGAQALAAFVSLYTIPVRTHTLPENVRLEPSY | not soluble
QVQLQQSGPELVKPGALVKISCKASGYTFTNYDINWVKQRPGQGLEWIGWIYPGDGSTMYNEKFKGKATLTADKSSSTAYMQLSSLTSENSSVYFCARLDGNYGGWFAYWGQGTSVTVSSAKTTPPSVYPLAPVCGDTTGSSVTLGCLVKGYFPEPVTVTWNSGSLSSGVHTFPAVLQSDLYTLSSSVTVPSSTWPSETVTCNVAHPASSTKVDKKIVP | soluble
MRAIIIGIGQCGTKIADIFSLVDFEALAINTSKSDLEYLKHIPPERRILVGESIVGGKGVNANPLLGREAMKRDLPMVMKKISSLVGYEDVDIFFLTFGFGGGTGAGGTPVLAEALKEEYPDSLVVAIGALPLKEEGIRPTINAAITIDKLSRIVDSIIAIDNNKLKESDEDISQAYEKINYAIVERIASLLALIDVPGEQTLDASDLKFVLRAMGSFATVGYAKADATKIKSLSRLIIRSFENEGLYLDVNLESALYGLVAIHGPPEVLKAKEIFDALSELSQRIRGKQIFRGFYPDPREREVEVVTLLSGIYESKSIENIVITAKRYAREFMKAKEEGEMKKRELLKGLPDFEDIYPGEVDEG | soluble
AARRALIVLAHSEKTSFNYAMKEAAVEALKKRGWEVLESDLYAMNFNPIISRNDITGELKDSKNFQYPSESSLAYKEGRLSPDIVAEHKKLEAADLVIFQFPLQWFGVPAILKGWFERVLVAGFAYTYAAMYDNGPFQNKKTLLSITTGGSGSMYSLQGVHGDMNVILWPIQSGILRFCGFQVLEPQLVYSIGHTPPDARMQILEGWKKRLETVWEETPLYFAPSSLFDLNFQAGFLLMKEVQEEQKKNKFGLSVGHHLGKSIPADNQIKARK | soluble
MGSDKIHHHHHHMAEKTFINRLQLTDFRNYGSASLRLDGRHVVLTGNNGSGKTNLMEAVSFLSPGRGLRRAVLSDVARAGAASGFSIFASLEGMAGDVELGTGSEVLDETAVRRLRINGASVRSVDELTDHLRVLWLTPAMDGLFTGSSSERRRFLDRLVLSIDPQHGRRASDFERAMRSRNKLLSEGRFDASWLAGIEQQMAALGIAMALARQEMMRLLAALIEQRREPETFPGADLMLSGFMDEHAGTAAIDLEDTYRDSLAGSRGRDAAAGRTLEGPHRSDLLVRHREKDMEAERCSTGEQKALLIGLILAHAELVATMTGFAPILLLDEIAAHLDEGRRAALFDRIDVLGGQAFMTGTDAQMFASLGDRAQFVTVDDGHLSL | not soluble
MHIISLLLENEPGALSRVVGLFSQRNYNIESLTVAPTEDPTLSRLTLTTVGHDEVIEQITKNLNKLIEVVKLVDL | soluble
MTRKFLNILKERTGVESITREQVRGIRRLVKKAREWDERKAQRYAKSAGKISDEEYSRLWSIDSYVISDSDKEKLKNLDQKTVFNNIMWLSRNAEKIDSNMKKFLGMHVWVVNYWIKTVGSATVRKFLRENNYSGEFVYFLYRYFNL | not soluble
MGSDKIHHHHHHMKFPLLLALLVGGASALHLSSETSDSKSPLMDENLPRDAEISGPEGEECPPGEELMPLEGEKEEGSGSEGVPGDEGAVSGQDVTDVDLQCPKEEDTTSLMGDSGCKTCRYLLVRRAECFDKAQSVCRRCYRGTLASIHSFSVNFGIQSAVRGINQGQVWIGGRIKGWGRCKRFRWVDGSSWNFAYWAAGQPCPGGGRCVTLCTQGGHWRLSHCVKRRPFICSY | not soluble
MRKSLEIGKCVVLEVLTPRGTNLGRFMEFTEEAWKTGIDAFTVTDMPMGRVRMAPWAASHLLVESGKDVLMHFTRNTRNMIRIQSDLLGCHALGVKNLLLLSGDNPSHGDYPETTSVNDIDILDLIRLTKLMNEGTDLAGNKIYGKTDFFVGGALNPFSDKDIKRAKQKIEAGVDFLVTQPLFNSEVAKKIKEELNTKILASIVFFENAKQMSYFSSVPGIEIPDEIVNSTEKGDDYLKEKSFESVLRFVEETKGVLDGFYIVAIVKDLEKIRKVVEIAKS | not soluble
MSKLLLVGEPLIRVSPNQFQPLTNACEAQLFFGGSEVNIARTLGGFGLEARLFTALPDNPVGHAFHQFLKQSGVDMSLTAWQGHRVGLYYLENGFGCRASQVYYDRCGSSFSALDKDSLDLAAIFEGISHFHFSGISLALGKKTQDLIEVLVREAKKRDICISFDLNFRSSMIAVADAKRLFSHFAQYADIIFGMEPLLLDSDDFDMFDRKKADTTTIRERLAGLYQRYQLQAIYHTERSNDAQGSNHFKAYAYDRQFYESCEVTTPVLQRVGSGDAFVAGLLYQLLEGNEKQRNLDFAVATASLKCTVAEDQLYHSVQQVEAVLANQRDIQR | not soluble
MAEKLSAHCHCGAVAFTVELSDGFNTVRRCNCSYCRMRGAVAVSSPRSGIEVVRGGDKLTEYRFNTGEAVHFFCSVCGIYTFHQRRSNPQQYGVNVACIDGVSPFDFP | not soluble
MSLKFYEDGNIPEIPNMYFIYGDGGTGKTSLLKQLKGHKFVFSFDMSSNVLIGDKDVDVVIFEHNDAPNIQAMVEECIIRAIQNAKYQVIVLDNVTALQNLVLENIDNAAKDNRQNYQKLQLWFRDLGTILKESGKTIYATAHQLDNGSSGISGEGRFQADMNEKTFNAFTSMFDLVGRIYLAAGERMIDLDPEKGNHAKNRLDDRKLIKANELIQSEKGEGHHHHHH | soluble
MSQWHHPRSGWGRRRDFSGRSSAKKKGGNHIPERWKDYLPVGQRMPGTRFIAFKVPLQKSFEKKLAPEECFSPLDLFNKIREQNEELGLIIDLTYTQRYYKPEDLPETVPYLKIFTVGHQVPDDETIFKFKHAVNGFLKENKDNDKLIGVHCTHGLNRTGYLICIYLIDVEGVRPDDAIELFNRCRGHCLERQNYIEDLQNGPIRKNWNSSVPRSSDFEDSAHLMQPVHNKPVKQGPRYNLHQIQGHSAPRHFHTQTQSLQQSVRKFSENPHVYQRHHLPPPGPPGEDYSHRRYSWNVKPNASRAAQDRRRWYPYNYSRLSYPACWEWTQ | soluble
MDTLFSLKVFRQVVQSGGFTRAADALGISTAMASKHVSHLENTVQAKLLHRNSRNLSLTEAGEEYYRQCSYALDTLDDAAQKAAGGTEKPQGLLRVTMPLWFAGSQICNWLAEYRERYPEVALELILDNRHVDLIAEGVDLALRVSQTLSPSLIARPLAEIEFALLASPDFLRRNGVPETPEEVAGLPAVLPTYTNQQKLDLTRKSDGKKYRLELTPVIRTDNTLMMREMIKAGACIGYQPLWAAEHDLRCGTLVRLLPGYAVPTDRLNAVYADRAFLSAKVRSFIDFLNEKIASRKGCRNAV | not soluble
